In patent publication US20200283529A1 (UNIVERSITY OF BRITISH COLUMBIA, published 2020):

How the values were obtained:
[1] = biological target: T1, HLA-A*23:01 on FlowPRA Single Antigen beads (human, UniProt P13749 25-305 (Pan troglodytes entry), limits assumed); assay: single antigen FlowPRA bead assay, flow cytometry
T1 construct: Bought HLA class I antigen on One Lambda beads. b2m and peptide are not described
T1 MHC heavy: not shown

[2] = biological target: T2, HLA-A*24:02 on FlowPRA Single Antigen beads (human, UniProt P04439-2 25-302 at identity 0.92)); assay: single antigen FlowPRA bead assay, flow cytometry
T2 construct: Bought HLA class I antigen on One Lambda beads. b2m and peptide are not described
T2 MHC heavy: not shown

B1: BB7.2 antibody (antibody, IgG2b, V domains shown)
VH: QVQLQQSGPELVKPGASVKMSCKASGYTFTSYHIQWVKQRPGQGLEWIGWIYPGDGSTQYNEKFKGKTTLTADKSSSTAYMLLSSLTSEDSAIYFCAREGTYYAMDYWGQGTSVTVSS
VL: DVLMTQTPLSLPVSLGDQVSISCRSSQSIVHSNGNTYLEWYLQKPGQSPKLLIYKVSNRFSGVPDRFSGSGSGTDFTLKISRVEAEDLGVYYCFQGSHVPRTFGGGTKLEIK
notes: also called mouse monoclonal antibody (BB7.2)
- binding result [1]: no binding
- binding result [2]: no binding
